# Data as given in US20210388087A1.
# Numbering of substitutions follows the chain as printed. Names and notes keep the numbering of the source.
# B1: dBBDu183H Y94E / dBBDu072L (antibody, name in Kabat numbering, V domains shown)
# VH: QVQLVESGGGLVQPGRSLRLSCAASGFTFSNAWMHWVRQAPGKGLEWVAQIKDKGNAYAAYYAPSVKGRFTISRDDSKNSIYLQMNSLKTEDTAVYYCHEVHYASASTVLPAFGVDAWGQGTTVTVSS
# VL: DIVMTQSPLSLPVTPGEPASISCQASQELVHMNRNTYLHWYQQKPGQAPRLLIYKVSNRFPGVPDRFSGSGSGTDFTLKISRVEAEDVGVYYCAQGTSVPFTFGQGTKLEIK
# B2: dBBDu183H A100fR / dBBDu072L (antibody, name in Kabat numbering, V domains shown)
# VH: B1 VH with E100Y, A112R
# VL: B1 VL
# B3: dBBDu183H V95E / dBBDu072L (antibody, name in Kabat numbering, V domains shown)
# VH: B1 VH with E100Y, V101E
# VL: B1 VL
# B4: dBBDu183H A98H / dBBDu072L (antibody, name in Kabat numbering, V domains shown)
# VH: B1 VH with E100Y, A104H
# VL: B1 VL
# B5: dBBDu183H H96K / dBBDu072L (antibody, name in Kabat numbering, V domains shown)
# VH: B1 VH with E100Y, H102K
# VL: B1 VL
# B6: dBBDu183H A100fE / dBBDu072L (antibody, name in Kabat numbering, V domains shown)
# VH: B1 VH with E100Y, A112E
# VL: B1 VL
# B7: dBBDu183H T100bR / dBBDu072L (antibody, name in Kabat numbering, V domains shown)
# VH: B1 VH with E100Y, T108R
# VL: B1 VL
# B8: dBBDu183H Y97E / dBBDu072L (antibody, name in Kabat numbering, V domains shown)
# VH: B1 VH with E100Y, Y103E
# VL: B1 VL
# B9: dBBDu183H S99E / dBBDu072L (antibody, name in Kabat numbering, V domains shown)
# VH: B1 VH with E100Y, S105E
# VL: B1 VL
# B10: dBBDu183H Y97K / dBBDu072L (antibody, name in Kabat numbering, V domains shown)
# VH: B1 VH with E100Y, Y103K
# VL: B1 VL
# B11: dBBDu183H Y97R / dBBDu072L (antibody, name in Kabat numbering, V domains shown)
# VH: B1 VH with E100Y, Y103R
# VL: B1 VL
# B12: dBBDu183H A100H / dBBDu072L (antibody, name in Kabat numbering, V domains shown)
# VH: B1 VH with E100Y, A106H
# VL: B1 VL
# B13: dBBDu183H A98K / dBBDu072L (antibody, name in Kabat numbering, V domains shown)
# VH: B1 VH with E100Y, A104K
# VL: B1 VL
# B14: dBBDu183H T100bH / dBBDu072L (antibody, name in Kabat numbering, V domains shown)
# VH: B1 VH with E100Y, T108H
# VL: B1 VL
# B15: dBBDu183H Y94H / dBBDu072L (antibody, name in Kabat numbering, V domains shown)
# VH: B1 VH with E100H
# VL: B1 VL
# B16: dBBDu183H A100fK / dBBDu072L (antibody, name in Kabat numbering, V domains shown)
# VH: B1 VH with E100Y, A112K
# VL: B1 VL
# B17: dBBDu183H D101K / dBBDu072L (antibody, name in Kabat numbering, V domains shown)
# VH: B1 VH with E100Y, D116K
# VL: B1 VL
# B18: dBBDu183H V100iE / dBBDu072L (antibody, name in Kabat numbering, V domains shown)
# VH: B1 VH with E100Y, V115E
# VL: B1 VL
# B19: dBBDu183H Y94K / dBBDu072L (antibody, name in Kabat numbering, V domains shown)
# VH: B1 VH with E100K
# VL: B1 VL
# B20: dBBDu183H L100dR / dBBDu072L (antibody, name in Kabat numbering, V domains shown)
# VH: B1 VH with E100Y, L110R
# VL: B1 VL
# B21: dBBDu183H A102K / dBBDu072L (antibody, name in Kabat numbering, V domains shown)
# VH: B1 VH with E100Y, A117K
# VL: B1 VL
# B22: dBBDu183H G100hH / dBBDu072L (antibody, name in Kabat numbering, V domains shown)
# VH: B1 VH with E100Y, G114H
# VL: B1 VL
# B23: dBBDu183H L100dH / dBBDu072L (antibody, name in Kabat numbering, V domains shown)
# VH: B1 VH with E100Y, L110H
# VL: B1 VL
# B24: dBBDu183H H96R / dBBDu072L (antibody, name in Kabat numbering, V domains shown)
# VH: B1 VH with E100Y, H102R
# VL: B1 VL
# B25: dBBDu183H G100hK / dBBDu072L (antibody, name in Kabat numbering, V domains shown)
# VH: B1 VH with E100Y, G114K
# VL: B1 VL
# B26: dBBDu183H S100aR / dBBDu072L (antibody, name in Kabat numbering, V domains shown)
# VH: B1 VH with E100Y, S107R
# VL: B1 VL
# B27: dBBDu183H S100aH / dBBDu072L (antibody, name in Kabat numbering, V domains shown)
# VH: B1 VH with E100Y, S107H
# VL: B1 VL
# B28: dBBDu183H D101H / dBBDu072L (antibody, name in Kabat numbering, V domains shown)
# VH: B1 VH with E100Y, D116H
# VL: B1 VL
# B29: dBBDu183H V95R / dBBDu072L (antibody, name in Kabat numbering, V domains shown)
# VH: B1 VH with E100Y, V101R
# VL: B1 VL
# B30: dBBDu183H S100aK / dBBDu072L (antibody, name in Kabat numbering, V domains shown)
# VH: B1 VH with E100Y, S107K
# VL: B1 VL
# B31: dBBDu183H A98R / dBBDu072L (antibody, name in Kabat numbering, V domains shown)
# VH: B1 VH with E100Y, A104R
# VL: B1 VL
# B32: dBBDu183H V100iH / dBBDu072L (antibody, name in Kabat numbering, V domains shown)
# VH: B1 VH with E100Y, V115H
# VL: B1 VL
# B33: dBBDu183H H96E / dBBDu072L (antibody, name in Kabat numbering, V domains shown)
# VH: B1 VH with E100Y, H102E
# VL: B1 VL
# B34: dBBDu183H F100gK / dBBDu072L (antibody, name in Kabat numbering, V domains shown)
# VH: B1 VH with E100Y, F113K
# VL: B1 VL
# B35: dBBDu183H H93R / dBBDu072L (antibody, name in Kabat numbering, V domains shown)
# VH: B1 VH with H99R, E100Y
# VL: B1 VL
# B36: dBBDu183H S100aE / dBBDu072L (antibody, name in Kabat numbering, V domains shown)
# VH: B1 VH with E100Y, S107E
# VL: B1 VL
# B37: dBBDu183H H93K / dBBDu072L (antibody, name in Kabat numbering, V domains shown)
# VH: B1 VH with H99K, E100Y
# VL: B1 VL
# B38: dBBDu183H G100hE / dBBDu072L (antibody, name in Kabat numbering, V domains shown)
# VH: B1 VH with E100Y, G114E
# VL: B1 VL
# B39: dBBDu183H T100bK / dBBDu072L (antibody, name in Kabat numbering, V domains shown)
# VH: B1 VH with E100Y, T108K
# VL: B1 VL
# B40: dBBDu183H V100iK / dBBDu072L (antibody, name in Kabat numbering, V domains shown)
# VH: B1 VH with E100Y, V115K
# VL: B1 VL
# B41: dBBDu183H A102H / dBBDu072L (antibody, name in Kabat numbering, V domains shown)
# VH: B1 VH with E100Y, A117H
# VL: B1 VL
# B42: dBBDu183H V95H / dBBDu072L (antibody, name in Kabat numbering, V domains shown)
# VH: B1 VH with E100Y, V101H
# VL: B1 VL
# B43: dBBDu183H Y97H / dBBDu072L (antibody, name in Kabat numbering, V domains shown)
# VH: B1 VH with E100Y, Y103H
# VL: B1 VL
# B44: dBBDu183H T100bE / dBBDu072L (antibody, name in Kabat numbering, V domains shown)
# VH: B1 VH with E100Y, T108E
# VL: B1 VL
# B45: dBBDu183H A102E / dBBDu072L (antibody, name in Kabat numbering, V domains shown)
# VH: B1 VH with E100Y, A117E
# VL: B1 VL
# B46: dBBDu183H V95K / dBBDu072L (antibody, name in Kabat numbering, V domains shown)
# VH: B1 VH with E100Y, V101K
# VL: B1 VL
# B47: dBBDu183H Y94R / dBBDu072L (antibody, name in Kabat numbering, V domains shown)
# VH: B1 VH with E100R
# VL: B1 VL
# Molecular target: Human CD137 ECD (human)
# Assay: SPR, vs parent H183/L072
# Sequence of Human CD137 ECD (human) (chain, as listed by the source limits assumed): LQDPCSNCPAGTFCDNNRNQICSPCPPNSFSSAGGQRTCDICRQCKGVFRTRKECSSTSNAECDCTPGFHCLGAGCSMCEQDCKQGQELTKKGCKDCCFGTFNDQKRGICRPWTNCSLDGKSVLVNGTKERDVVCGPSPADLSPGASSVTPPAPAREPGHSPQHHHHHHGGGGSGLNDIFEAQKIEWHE
row,Binder,fold change of affinity
1,B1,0 fold
2,B2,0 fold
3,B3,0 fold
4,B4,0 fold
5,B5,0 fold
6,B6,0 fold
7,B7,0 fold
8,B8,0 fold
9,B9,0 fold
10,B10,0 fold
11,B11,0 fold
12,B12,0 fold
13,B13,0 fold
14,B14,0 fold
15,B15,0 fold
16,B16,0 fold
17,B17,0 fold
18,B18,0 fold
19,B19,0 fold
20,B20,0 fold
21,B21,0 fold
22,B22,0 fold
23,B23,0 fold
24,B24,0 fold

row,Binder,fold change of affinity
1,B25,0 fold
2,B26,0 fold
3,B27,0 fold
4,B28,0 fold
5,B29,0 fold
6,B30,0 fold
7,B31,0 fold
8,B32,0 fold
9,B33,0 fold
10,B34,0 fold
11,B35,0 fold
12,B36,0 fold
13,B37,0 fold
14,B38,0 fold
15,B39,0 fold
16,B40,0 fold
17,B41,0 fold
18,B42,0 fold
19,B43,0 fold
20,B44,0 fold
21,B45,0 fold
22,B46,0 fold
23,B47,0 fold
